Data taken from paper doi:10.1101/844829.

Assays:
[1] = molecular target: GMPCPP-stabilized microtubules polymerized from porcine tubulin (porcine) (UniProt P02550); test: optical tweezers with 2D force clamp
[2] = molecular target: Rhodamine-labeled GMPCPP-stabilized microtubules from porcine tubulin (10 % rhodamine-labeled tubulin) (porcine) (UniProt P02550); test: single-molecule TIRF microscopy

end residence time at the microtubule plus end (sideward load 0.5 pN) [1]: 33 s
end residence time extrapolated to zero load from the high-assisting-load data [1]: 17 s
mean end residence time at the microtubule plus end (without load) [1]: 64 s
mean end residence time at the microtubule plus end (no load) [2]: 80 s
mean run time on the microtubule (no load) [2]: 150 s
Substance: Full-length budding yeast Kip3 (Kip3-eGFP-His6) (from UniProt P53086 1-805) (natural protein)
